# Measured values reported in IntAct's records for PubMed 26886794.
# B1: Histone-lysine N-methyltransferase SETD1B (Homo sapiens), Q9UPS6-2 (parent)
# chain: MENSHPPHHHHQQPPPQPGPSGERRNHHWRSYKLMIDPALKKGHHKLYRYDGQHFSLAMSSNRPVEIVEDPRVVGIWTKNKELELSVPKFKIDEFYVGPVPPKQVTFAKLNDNIRENFLRDMCKKYGEVEEVEILYNPKTKKHLGIAKVVFATVRGAKDAVQHLHSTSVMGNIIHVELDTKGETRMRFYELLVTGRYTPQTLPVGELDAVSPIVNETLQLSDALKRLKDGGLSAGCGSGSSSVTPNSGGTPFSQDTAYSSCRLDTPNSYGQGTPLTPRLGTPFSQDSSYSSRQPTPSYLFSQDPAVTFKARRHESKFTDAYNRRHEHHYVHNSPAVTAVAGATAAFRGSSDLPFGAVGGTGGSSGPPFKAQPQDSATFAHTPPPAQATPAPGFKSAFSPYQTPVAHFPPPPEEPTATAAFGARDSGEFRRAPAPPPLPPAEPLAKEKPGTPPGPPPPDTNSMELGGRPTFGWSPEPCDSPGTPTLESSPAGPEKPHDSLDSRIEMLLKEQRTKLLFLREPDSDTELQMEGSPISSSSSQLSPLAPFGTNSQPGFRGPTPPSSRPSSTGLEDISPTPLPDSDEDEELDLGLGPRPPPEPGPPDPAGLLSQTAEVALDLVGDRTPTSEKMDEGQQSSGEDMEISDDEMPSAPITSADCPKPMVVTPGAAAVAAPSVLAPTLPLPPPPGFPPLPPPPPPPPPQPGFPMPPPLPPPPPPPPPAHPAVTVPPPPLPAPPGVPPPPILPPLPPFPPGLFPVMQVDMSHVLGGQWGGMPMSFQMQTQVLSRLMTGQGACPYPPFMAAAAAAASAGLQFVNLPPYRGPFSLSNSGPGRGQHWPPLPKFDPSVPPPGYMPRQEDPHKATVDGVLLVVLKELKAIMKRDLNRKMVEVVAFRAFDEWWDKKERMAKASLTPVKSGEHKDEDRPKPKDRIASCLLESWGKGEGLGYEGLGLGIGLRGAIRLPSFKVKRKEPPDTTSSGDQKRLRPSTSVDEEDEESERERDRDMADTPCELAKRDPKGVGVRRRPARPLELDSGGEEDEKESLSEEQESTEEEEEAEEEEEEEDDDDDDSDDRDESENDDEDTALSEASEKDEGDSDEEETVSIVTSKAEATSSSESSESSEFESSSESSPSSSEDEEEVVAREEEEEEEEEEMVAEESMASAGPEDFEQDGEEAALAPGAPAVDSLGMEEEVDIETEAVAPEERPSMLDEPPLPVGVEEPADSREPPEEPGLSQEGAMLLSPEPPAKEVEARPPLSPERAPEHDLEVEPEPPMMLPLPLQPPLPPPRPPRPPSPPPEPETTDASHPSVPPEPLAEDHPPHTPGLCGSLAKSQSTETVPATPGGEPPLSGGSSGLSLSSPQVPGSPFSYPAPSPSLSSGGLPRTPGRDFSFTPTFSEPSGPLLLPVCPLPTGRRDERSGPLASPVLLETGLPLPLPLPLPLPLALPAVLRAQARAPTPLPPLLPAPLASCPPPMKRKPGRPRRSPPSMLSLDGPLVRPPAGAALGRELLLLPGQPQTPVFPSTHDPRTVTLDFRNAGIPAPPPPLPPQPPPPPPPPPVEPTKLPFKELDNQWPSEAIPPGPRGRDEVTEEYMELAKSRGPWRRPPKKRHEDLVPPAGSPELSPPQPLFRPRSEFEEMTILYDIWNGGIDEEDIRFLCVTYERLLQQDNGMDWLNDTLWVYHPSTSLSSAKKKKRDDGIREHVTGCARSEGFYTIDKKDKLRYLNSSRASTDEPPADTQGMSIPAQPHASTRAGSERRSEQRRLLSSFTGSCDSDLLKFNQLKFRKKKLKFCKSHIHDWGLFAMEPIAADEMVIEYVGQNIRQVIADMREKRYEDEGIGSSYMFRVDHDTIIDATKCGNFARFINHSCNPNCYAKVITVESQKKIVIYSKQHINVNEEITYDYKFPIEDVKIPCLCGSENCRGTLN
# Variants of: B1
# Details: with ASH2L
row,effect of a mutation on the interaction,Variant
1,disrupting interaction strength,R1819A
